Experimental data from publication PMC7253180, “A CLC-ec1 mutant reveals global conformational change and suggests a unifying mechanism for the CLC Cl^–/H^+ transport cycle” (eLife, 2020).

Legend:
[1] = biological target: the molecule itself; assay: crystal structure; lipidic cubic phase (monoolein with 10% cholesterol), without any antibody Fab fragment; 100 mM Tris pH 8.5, 100 mM sodium malonate, 30% PEG 400, 2.5% MPD; 16°C
[2] = biological target: the molecule itself; assay: DEER spectroscopy; one MTSSL spin label per subunit, inter-subunit distance distributions; pH 7.5 and pH 4.5; 83 K, Q-band; four-pulse protocol (five-pulse for position 374)

Protein	binding result [1]	binding result [2]
CLC-ec1 QQQ mutant (E148Q/E203Q/E113Q) (natural protein, E. coli, CLC-ec1, prokaryotic (E. coli) CLC Cl-/H+ exchange transporter, from plasmid pASK-CLC-ec1; Helix A (N-terminal) has no density in the model; also called ClC-ec1 triple mutant (E113Q, E148Q, E203Q)) MKTDTPSLETPQAARLRRRQLIRQLLERDKTPLAILFMAAVVGTLVGLAAVAFDKGVAWLQNQRMGALVHTADNYPLLLTVAFLCSAVLAMFGYFLVRKYAPEAGGSGIPEIQGALEDQRPVRWWRVLPVKFFGGLGTLGGGMVLGRQGPTVQIGGNIGRMVLDIFRLKGDEARHTLLATGAAAGLAAAFNAPLAGILFIIEQMRPQFRYTLISIKAVFIGVIMSTIMYRIFNHEVALIDVGKLSDAPLNTLWLYLILGIIFGIFGPIFNKWVLGMQDLLHRVHGGNITKWVLMGGAIGGLCGLLGFVAPATSGGGFNLIPIATAGNFSMGMLVFIFVARVITTLLCFSSGAPGGIFAPMLALGTVLGTAFGMVAVELFPQYHLEAGTFAIAGMGALLAASIRAPLTGIILVLEMTDNYQLILPMIITGLGATLLAQFTGGKPLYSAILARTLAKQEAEQLARSKAAS	binds	
D417C/QQQ CLC-ec1 (cysteine-less background), spin-labeled (natural protein, E. coli, MTSSL spin label on the substituted cysteine at 417, CLC-ec1, prokaryotic (E. coli) CLC Cl-/H+ exchange transporter, from plasmid pASK-CLC-ec1; Helix P; source: purified under reducing conditions, then labeled with MTSSL) MKTDTPSLETPQAARLRRRQLIRQLLERDKTPLAILFMAAVVGTLVGLAAVAFDKGVAWLQNQRMGALVHTADNYPLLLTVAFLASAVLAMFGYFLVRKYAPEAGGSGIPEIQGALEDQRPVRWWRVLPVKFFGGLGTLGGGMVLGRQGPTVQIGGNIGRMVLDIFRLKGDEARHTLLATGAAAGLAAAFNAPLAGILFIIEQMRPQFRYTLISIKAVFIGVIMSTIMYRIFNHEVALIDVGKLSDAPLNTLWLYLILGIIFGIFGPIFNKWVLGMQDLLHRVHGGNITKWVLMGGAIGGLAGLLGFVAPATSGGGFNLIPIATAGNFSMGMLVFIFVARVITTLLSFSSGAPGGIFAPMLALGTVLGTAFGMVAVELFPQYHLEAGTFAIAGMGALLAASIRAPLTGIILVLEMTCNYQLILPMIITGLGATLLAQFTGGKPLYSAILARTLAKQEAEQLARSKAAS		binds
WT CLC-ec1 (cysteine-less background) D417C, spin-labeled (natural protein, E. coli, MTSSL spin label on the substituted cysteine at 417, CLC-ec1, prokaryotic (E. coli) CLC Cl-/H+ exchange transporter, from plasmid pASK-CLC-ec1; Helix P; source: purified under reducing conditions, then labeled with MTSSL) MKTDTPSLETPQAARLRRRQLIRQLLERDKTPLAILFMAAVVGTLVGLAAVAFDKGVAWLQNQRMGALVHTADNYPLLLTVAFLASAVLAMFGYFLVRKYAPEAGGSGIPEIEGALEDQRPVRWWRVLPVKFFGGLGTLGGGMVLGREGPTVQIGGNIGRMVLDIFRLKGDEARHTLLATGAAAGLAAAFNAPLAGILFIIEEMRPQFRYTLISIKAVFIGVIMSTIMYRIFNHEVALIDVGKLSDAPLNTLWLYLILGIIFGIFGPIFNKWVLGMQDLLHRVHGGNITKWVLMGGAIGGLAGLLGFVAPATSGGGFNLIPIATAGNFSMGMLVFIFVARVITTLLSFSSGAPGGIFAPMLALGTVLGTAFGMVAVELFPQYHLEAGTFAIAGMGALLAASIRAPLTGIILVLEMTCNYQLILPMIITGLGATLLAQFTGGKPLYSAILARTLAKQEAEQLARSK		binds
